# Measurements taken from paper PMC4467794.
# Target: Mcx1-3xFLAG, wildtype, purified recombinant (S. cerevisiae) (UniProt P38323)
# Experiment: co-IP
# Chain of Mcx1-3xFLAG, wildtype, purified recombinant (S. cerevisiae) (P38323 14-520): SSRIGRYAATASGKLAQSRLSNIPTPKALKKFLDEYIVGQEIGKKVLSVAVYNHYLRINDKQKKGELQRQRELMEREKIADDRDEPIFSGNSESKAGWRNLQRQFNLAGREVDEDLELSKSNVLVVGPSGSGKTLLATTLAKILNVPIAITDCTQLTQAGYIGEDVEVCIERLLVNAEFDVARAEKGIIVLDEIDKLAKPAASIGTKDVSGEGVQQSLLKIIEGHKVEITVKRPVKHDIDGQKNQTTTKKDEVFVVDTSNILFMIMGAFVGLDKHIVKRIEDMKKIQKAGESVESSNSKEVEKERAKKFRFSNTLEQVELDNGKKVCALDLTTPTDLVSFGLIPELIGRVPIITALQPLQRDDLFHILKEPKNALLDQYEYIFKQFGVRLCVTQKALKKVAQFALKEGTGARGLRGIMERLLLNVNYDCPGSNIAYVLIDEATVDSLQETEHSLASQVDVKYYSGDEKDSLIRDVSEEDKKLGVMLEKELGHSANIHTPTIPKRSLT
substance,measurement,value
"apoHem1 (PLP-free Hem1, yeast ALA synthase), purified recombinant (from UniProt P09950 23-548) (enzyme)",fold amount bound relative to holoHem1,10 fold
